According to article PMC3695229:
Blank lines part the entries; values can stand above or below the substance they belong to.

Experiments:
TGF-β3 (Homo sapiens) = TGF-β3 (Homo sapiens) (UniProt P10600); conditions: cited from earlier work
TGF-β1 (Homo sapiens) = TGF-β1 (Homo sapiens) (UniProt P01137); conditions: cited from earlier work
TGF-β2 (Homo sapiens) = TGF-β2 (Homo sapiens) (UniProt P61812); conditions: cited from earlier work
TGFR-3-ZP(ΔC) (mouse) = TGFR-3-ZP(ΔC) (mouse) (UniProt O88393); test: SEC; analytical SEC of the ligand-free protein on Superdex 200 10/300, 4°C, 0.5 ml/min; apparent molecular weight against standards
[1] = biological target: P4-mZP (17mer peptide of murine TGFR-3, residues 732-748) (mouse) (UniProt O88393); test: SPR; ProteOn XPR36; biotinylated peptides immobilised on neutravidin (300-600 RU), TGF-β2 as analyte; 25°C, HBS150 (10 mM HEPES pH 7.4, 150 mM NaCl, 3.4 mM EDTA, 0.005% Tween 20); kinetic fit 1:1 Langmuir with or without mass transfer; avidity of dimeric TGF-β2 expected
[2] = biological target: P1-mZP (C-terminus mimetic peptide of murine TGFR-3-ZP, residues 735-782) (mouse) (UniProt O88393); test: as above
[3] = biological target: P5-hZP (17mer peptide of human TGFR-3, residues 734-750) (human) (UniProt Q03167); test: as above
[4] = biological target: P2-hZP (C-terminus mimetic peptide of human TGFR-3, residues 737-788) (human) (UniProt Q03167); test: as above
Sequence of P2-hZP (C-terminus mimetic peptide of human TGFR-3, residues 737-788) (human) (Q03167 737-788): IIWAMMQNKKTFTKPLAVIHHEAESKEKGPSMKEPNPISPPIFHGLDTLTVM

Sequence of TGFR-3 membrane-proximal ectodomain C-terminal half of ectodomain (P26342 410-781): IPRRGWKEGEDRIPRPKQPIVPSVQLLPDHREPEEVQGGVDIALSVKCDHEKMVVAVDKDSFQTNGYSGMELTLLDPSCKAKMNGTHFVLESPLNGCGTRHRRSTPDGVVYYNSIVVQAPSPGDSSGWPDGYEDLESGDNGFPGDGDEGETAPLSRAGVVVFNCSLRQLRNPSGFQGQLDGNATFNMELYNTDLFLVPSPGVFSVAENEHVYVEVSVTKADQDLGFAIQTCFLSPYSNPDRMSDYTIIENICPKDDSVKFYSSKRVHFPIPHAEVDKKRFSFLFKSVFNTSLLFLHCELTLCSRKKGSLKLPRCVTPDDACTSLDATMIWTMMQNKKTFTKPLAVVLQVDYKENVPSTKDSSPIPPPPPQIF
Sequence of P1-mZP (C-terminus mimetic peptide of murine TGFR-3-ZP, residues 735-782) (mouse) (O88393 735-782): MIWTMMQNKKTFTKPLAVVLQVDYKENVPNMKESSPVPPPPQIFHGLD
Sequence of TGF-β2 (Homo sapiens) (P61812 303-414): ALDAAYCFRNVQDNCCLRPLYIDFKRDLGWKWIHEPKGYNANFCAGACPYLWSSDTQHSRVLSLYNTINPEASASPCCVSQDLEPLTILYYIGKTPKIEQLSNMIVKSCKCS
Sequence of TGF-β3 (Homo sapiens) (P10600 301-412): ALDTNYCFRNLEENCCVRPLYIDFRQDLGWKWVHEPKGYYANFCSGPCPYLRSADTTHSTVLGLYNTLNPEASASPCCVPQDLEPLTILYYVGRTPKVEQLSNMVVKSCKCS
Sequence of TGF-β1 (Homo sapiens) (P01137 279-390): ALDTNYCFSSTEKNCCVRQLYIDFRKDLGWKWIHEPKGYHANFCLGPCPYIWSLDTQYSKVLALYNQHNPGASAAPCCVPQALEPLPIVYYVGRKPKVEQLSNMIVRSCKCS

Substance: TGFR-3 membrane-proximal ectodomain C-terminal half of ectodomain (from UniProt P26342)
- Kd (TGF-β3 (Homo sapiens)): 5800 nM
- Kd (TGF-β1 (Homo sapiens)): 9700 nM
- Kd (TGF-β2 (Homo sapiens)): 2600 nM

- stoichiometry N (TGFR-3-ZP(ΔC) (mouse)): 2
Substance: TGFR-3-ZP(ΔC) (from UniProt O88393 438-734) (domain or fragment)

- Kd [1]: 192 nM
- koff [1]: 0.02 s⁻¹
- kon [1]: 110000 M⁻¹ s⁻¹
- Kd [2]: 7.9 nM
- koff [2]: 0.029 s⁻¹
- kon [2]: 5.2e+06 M⁻¹ s⁻¹
- Kd [3]: 353 nM
- koff [3]: 0.029 s⁻¹
- kon [3]: 79000 M⁻¹ s⁻¹
- Kd [4]: 15 nM
- koff [4]: 0.044 s⁻¹
- kon [4]: 4.4e+06 M⁻¹ s⁻¹
Substance: human TGF-β2 (ligand)
